Measurements as given in US20170095421A1 (published 2017).

Key:
GPIIbIIIa = experiment: SPR (Langmuir binding analysis)
Peptide 2 = experiment: SPR (Langmuir binding analysis); GPIIbIIIa mimotope
Peptide 1 = experiment: as above

Kd (GPIIbIIIa): 10.3 nM | Kd (Peptide 2): 334 nM | Kd (Peptide 1): 12500 nM
B1: Fibrinogen (ligand)
chain 1: ADSGEGDFLAEGGGVRGPRVVERHQSACKDSDWPFCSDEDWNYKCPSGCRMKGLIDEVNQDFTNRINKLKNSLFEYQKNNKDSHSLTTNIMEILRGDFSSANNRDNTYNRVSEDLRSRIEVLKRKVIEKVQHIQLLQKNVRAQLVDMKRLEVDIDIKIRSCRGSCSRALAREVDLKDYEDQQKQLEQVIAKDLLPSRDRQHLPLIKMKPVPDLVPGNFKSQLQKVPPEWKALTDMPQMRMELERPGGNEITRGGSTSYGTGSETESPRNPSSAGSWNSGSSGPGSTGNRNPGSSGTGGTATWKPGSSGPGSTGSWNSGSSGTGSTGNQNPGSPRPGSTGTWNPGSSERGSAGHWTSESSVSGSTGQWHSESGSFRPDSPGSGNARPNNPDWGTFEEVSGNVSPGTRREYHTEKLVTSKGDKELRTGKEKVTSGSTTTTRRSCSKTVTKTVIGPDGHKEVTKEVVTSEDGSDCPEAMDLGTLSGIGTLDGFRHRHPDEAAFFDTASTGKTFPGFFSPMLGEFVSETESRGSESGIFTNTKESSSHHPGIAEFPSRGKSSSYSKQFTSSTSYNRGDSTFESKSYKMADEAGSEADHEGTHSTKRGHAKSRPV
chain 2: QGVNDNEEGFFSARGHRPLDKKREEAPSLRPAPPPISGGGYRARPAKAAATQKKVERKAPDAGGCLHADPDLGVLCPTGCQLQEALLQQERPIRNSVDELNNNVEAVSQTSSSSFQYMYLLKDLWQKRQKQVKDNENVVNEYSSELEKHQLYIDETVNSNIPTNLRVLRSILENLRSKIQKLESDVSAQMEYCRTPCTVSCNIPVVSGKECEEIIRKGGETSEMYLIQPDSSVKPYRVYCDMNTENGGWTVIQNRQDGSVDFGRKWDPYKQGFGNVATNTDGKNYCGLPGEYWLGNDKISQLTRMGPTELLIEMEDWKGDKVKAHYGGFTVQNEANKYQISVNKYRGTAGNALMDGASQLMGENRTMTIHNGMFFSTYDRDNDGWLTSDPRKQCSKEDGGGWWYNRCHAANPNGRYYWGGQYTWDMAKHGTDDGVVWMNWKGSWYSMRKMSMKIRPFFPQQ
chain 3: YVATRDNCCILDERFGSYCPTTCGIADFLSTYQTKVDKDLQSLEDILHQVENKTSEVKQLIKAIQLTYNPDESSKPNMIDAATLKSRKMLEEIMKYEASILTHDSSIRYLQEIYNSNNQKIVNLKEKVAQLEAQCQEPCKDTVQIHDITGKDCQDIANKGAKQSGLYFIKPLKANQQFLVYCEIDGSGNGWTVFQKRLDGSVDFKKNWIQYKEGFGHLSPTGTTEFWLGNEKIHLISTQSAIPYALRVELEDWNGRTSTADYAMFKVGPEADKYRLTYAYFAGGDAGDAFDGFDFGDDPSDKFFTSHNGMQFSTWDNDNDKFEGNCAEQDGSGWWMNKCHAGHLNGVYYQGGTYSKASTPNGYDNGIIWATWKTRWYSMKKTTMKIIPFNRLTIGEGQQHHLGGAKQAGDV
